Assay results as given in paper PMC3369482 (Biochemical Journal, 2012).
Where two headings read alike, the source gives them in different places.

T1: ADAMTS5-2 (ADAMTS-5 lacking the C-terminal TS-2 domain) (human, UniProt Q9UNA0 262-874)
T1 sequence (looked up): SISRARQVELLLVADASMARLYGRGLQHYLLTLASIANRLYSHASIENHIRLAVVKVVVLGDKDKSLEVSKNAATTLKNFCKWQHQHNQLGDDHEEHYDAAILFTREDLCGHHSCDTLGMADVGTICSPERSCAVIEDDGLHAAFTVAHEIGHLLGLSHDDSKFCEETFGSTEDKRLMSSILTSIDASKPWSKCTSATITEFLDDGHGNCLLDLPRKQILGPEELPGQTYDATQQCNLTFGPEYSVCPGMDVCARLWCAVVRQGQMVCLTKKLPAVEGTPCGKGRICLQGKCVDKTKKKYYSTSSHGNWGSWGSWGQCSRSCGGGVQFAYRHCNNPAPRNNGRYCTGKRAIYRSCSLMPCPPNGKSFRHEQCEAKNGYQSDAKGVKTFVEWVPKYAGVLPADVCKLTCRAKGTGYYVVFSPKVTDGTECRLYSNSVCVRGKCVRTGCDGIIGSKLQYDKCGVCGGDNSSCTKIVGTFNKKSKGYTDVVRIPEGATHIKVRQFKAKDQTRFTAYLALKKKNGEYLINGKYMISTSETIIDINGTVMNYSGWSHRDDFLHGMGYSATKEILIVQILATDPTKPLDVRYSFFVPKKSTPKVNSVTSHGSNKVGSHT

T2: MMP-2 (UniProt P08253 110-660)
T2 sequence (looked up): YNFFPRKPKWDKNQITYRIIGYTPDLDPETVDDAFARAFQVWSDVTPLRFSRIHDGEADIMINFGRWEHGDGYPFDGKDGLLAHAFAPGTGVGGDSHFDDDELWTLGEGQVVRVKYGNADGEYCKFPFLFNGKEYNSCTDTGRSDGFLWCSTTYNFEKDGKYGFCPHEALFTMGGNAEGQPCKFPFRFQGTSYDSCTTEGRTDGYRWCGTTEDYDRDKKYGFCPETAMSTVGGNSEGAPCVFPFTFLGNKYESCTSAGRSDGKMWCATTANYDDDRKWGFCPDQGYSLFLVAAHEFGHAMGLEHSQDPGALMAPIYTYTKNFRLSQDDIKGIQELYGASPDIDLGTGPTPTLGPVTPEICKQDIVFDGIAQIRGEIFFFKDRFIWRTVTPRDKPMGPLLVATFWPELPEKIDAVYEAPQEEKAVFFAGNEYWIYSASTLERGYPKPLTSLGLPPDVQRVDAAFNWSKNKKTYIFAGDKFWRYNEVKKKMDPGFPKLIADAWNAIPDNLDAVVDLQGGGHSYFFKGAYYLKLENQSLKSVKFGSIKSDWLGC

T3: MMP (matrix metalloproteinase)-1 catalytic domain (UniProt P03956 100-269)
T3 sequence (looked up): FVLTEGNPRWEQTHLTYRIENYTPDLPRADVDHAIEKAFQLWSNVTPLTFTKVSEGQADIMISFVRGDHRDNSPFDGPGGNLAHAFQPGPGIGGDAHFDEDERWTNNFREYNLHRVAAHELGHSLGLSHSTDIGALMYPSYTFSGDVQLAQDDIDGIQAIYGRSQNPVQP

T4: Recombinant human ADAMTS-5 (adamalysin with thrombospondin motifs 5), full-length (human, UniProt Q9UNA0 262-930)
T4 sequence (looked up): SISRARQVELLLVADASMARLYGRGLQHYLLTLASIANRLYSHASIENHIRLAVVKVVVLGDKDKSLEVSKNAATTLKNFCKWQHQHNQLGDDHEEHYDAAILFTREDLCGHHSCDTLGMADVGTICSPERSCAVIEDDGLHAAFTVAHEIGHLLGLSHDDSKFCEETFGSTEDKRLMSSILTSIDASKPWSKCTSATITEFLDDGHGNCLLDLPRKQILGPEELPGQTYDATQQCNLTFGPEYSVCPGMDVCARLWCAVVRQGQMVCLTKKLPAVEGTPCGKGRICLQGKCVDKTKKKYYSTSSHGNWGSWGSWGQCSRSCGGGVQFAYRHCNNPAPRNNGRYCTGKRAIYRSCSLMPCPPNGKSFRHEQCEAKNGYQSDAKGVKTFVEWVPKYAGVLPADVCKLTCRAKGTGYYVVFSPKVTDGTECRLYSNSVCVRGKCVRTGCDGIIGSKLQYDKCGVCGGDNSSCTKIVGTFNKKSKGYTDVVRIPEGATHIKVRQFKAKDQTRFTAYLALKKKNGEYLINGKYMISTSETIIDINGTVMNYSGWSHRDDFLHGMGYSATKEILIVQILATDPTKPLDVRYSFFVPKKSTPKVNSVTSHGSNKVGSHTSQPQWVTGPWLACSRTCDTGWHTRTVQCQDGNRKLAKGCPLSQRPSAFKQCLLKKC

B1: TIMP-3(K26/27/30/76E+R163/K165Q) (natural protein, human, UniProt P35625 24-211, looked up)
chain: CTCSPSHPQDAFCNSDIVIRAKVVGEELVEEGPFGTLVYTIKQMKMYRGFTKMPHVQYIHTEASESLCGLKLEVNEYQYLLTGRVYDGKMYTGLCNFVERWDQLTLSQRKGLNYRYHLGCNCKIKSCYYLPCFVTSKNECLWTDMLSNFGYPGYQSKHYACIQQQGGYCSWYRGWAPPDKSIINATDP
B2: Recombinant human TIMP-3 (tissue inhibitor of metalloproteinases 3) (natural protein, UniProt P35625 24-211, looked up)
chain: CTCSPSHPQDAFCNSDIVIRAKVVGKKLVKEGPFGTLVYTIKQMKMYRGFTKMPHVQYIHTEASESLCGLKLEVNKYQYLLTGRVYDGKMYTGLCNFVERWDQLTLSQRKGLNYRYHLGCNCKIKSCYYLPCFVTSKNECLWTDMLSNFGYPGYQSKHYACIRQKGGYCSWYRGWAPPDKSIINATDP
B3: TIMP-1 (tissue inhibitor of metalloproteinases 1) (natural protein)
chain: not shown

Columns and labels:
Test in all cases: enzyme inhibition kinetics
[1] = molecular target: T1, ADAMTS5-2 (ADAMTS-5 lacking the …)
MMP-3 catalytic domain = MMP-3 catalytic domain (UniProt P08254 100-272)
Chain of MMP-3 catalytic domain (P08254 100-272): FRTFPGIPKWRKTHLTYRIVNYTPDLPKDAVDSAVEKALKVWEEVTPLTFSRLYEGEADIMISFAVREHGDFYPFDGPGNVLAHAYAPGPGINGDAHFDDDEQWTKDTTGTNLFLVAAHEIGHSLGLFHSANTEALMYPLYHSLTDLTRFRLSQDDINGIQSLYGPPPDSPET

MMP-2 = molecular target: T2, MMP-2
[2] = molecular target: T3, MMP (matrix metalloproteinase)-1 …
[3] = molecular target: T4, Recombinant human ADAMTS-5 (adamalysin …)
[4] = molecular target: T4, Recombinant human ADAMTS-5 (adamalysin …); remark: listed apart in the source

Binder | Ki [1] | Ki (MMP-3 catalytic domain) | Ki (MMP-2) | Ki [2] | Ki [3] | Ki [4]
B1 | 1.34 ± 0.04 nM |  |  |  |  | 
B2 |  | 0.9 ± 0.28 nM | 0.16 ± 0.002 nM | 0.43 ± 0.12 nM | 0.56 ± 0.03 nM | 
B3 |  |  |  |  | 734 ± 0.16 nM | 522 ± 0.24 nM
